These results are taken from paper PMC11979922.

This assay concerns the target HOL-30, β-galactoside-binding tandem-repeat galectin from the marine sponge Halichondria okadai (Halichondria okadai). The experiment in a line: SEC. A general note: In gel filtration, larger molecules generally elute earlier.

One may read the stoichiometry N as a count of units in the complex or per binding partner. For “HOL-30, β-galactoside-binding tandem-repeat galectin from the marine sponge Halichondria okadai (natural protein)”, the stoichiometry N was 2.
